Reference: paper PMC2191977 (The Journal of Experimental Medicine, 1995)

Biological target: T1, B7 QDP/LEH (Q194L, D195E, P196H) (mouse, UniProt Q00609 38-306, Q194D195P196>LEH)
T1 sequence (looked up): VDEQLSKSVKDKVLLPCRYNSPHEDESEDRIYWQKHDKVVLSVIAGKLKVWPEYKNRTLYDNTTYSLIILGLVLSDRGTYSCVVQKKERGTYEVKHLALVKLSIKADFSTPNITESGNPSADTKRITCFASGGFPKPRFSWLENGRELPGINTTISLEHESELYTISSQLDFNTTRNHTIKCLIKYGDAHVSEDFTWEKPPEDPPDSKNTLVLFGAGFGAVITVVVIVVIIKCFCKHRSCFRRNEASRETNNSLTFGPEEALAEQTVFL
Test: flow cytometry on cells

B1: CD28Ig (Fc fusion, mouse, UniProt P31041 20-150, looked up)
chain: NKILVKQSPLLVVDSNEVSLSCRYSYNLLAKEFRASLYKGVNSDVEVCVGNGNFTYQPQFRSNAEFNCDGDFDNETVTFRLWNLHVNHTDIYFCKIEFMYPPPYLDNERSNGTIIHIKEKHLCHTQSSPKL
  % wild-type B7 binding (normalised to anti-B7 mAb 10.16A.1): 3%
  MF (mean fluorescence, control subtracted): 1 MF
